Stoichiometry N data for two substances are collected here from article PMC11559089.

A word on the stoichiometry N: it is a count of units in the complex or per binding partner.

For test [1], the target named is full-length HIV-1 integrase Y99H/A128T (HIV-1). Put plainly: SEC; Superdex 200 10/300 GL; 20 µM IN; 20 mM HEPES pH 7.5, 1 M NaCl, 10% glycerol, 5 mM BME; 0.3 mL/min; incubated 1 h at 4°C; size by protein standards; no inhibitor. On the technique in general: In gel filtration, larger molecules generally elute earlier.
The target in test [2] is full-length WT HIV-1 integrase (IN) (HIV-1). The test is described as above.

Substance “full-length HIV-1 integrase Y99H/A128T (enzyme)” showed a stoichiometry N in test [1] of 4.

“full-length WT HIV-1 integrase (IN) (enzyme)”: in test [2], the stoichiometry N worked out at 4.
